Experimental data published in article PMC8653789.

Tests used:
Test in all cases: AlphaScreen or HTRF
[1] = biological target: H3K4me1/H4K12ac nucleosome (UniProt P04908)
[2] = biological target: H3K4me2/H4K12ac nucleosome (UniProt P04908)
[3] = biological target: H3K4me3/H4K12ac nucleosome (UniProt P04908)

**Q.** For “PHIP Tudor–BD1–BD2 R1402S (from UniProt Q8WWQ0 940-1434) (domain or fragment)”, which fold reduction of binding relative to wild type [1] is on record?
**A.** > 10 fold

**Q.** And the fold reduction of binding relative to wild type [2]?
**A.** > 10 fold

**Q.** And the fold reduction of binding relative to wild type [3]?
**A.** > 10 fold

**Q.** For “PHIP Tudor–BD1–BD2 W1156L (from UniProt Q8WWQ0 940-1434) (domain or fragment)”, which fold reduction of binding relative to wild type [1] is on record?
**A.** > 3 fold

**Q.** And the fold reduction of binding relative to wild type [2]?
**A.** > 3 fold

**Q.** For “PHIP Tudor–BD1–BD2 R1310C (from UniProt Q8WWQ0 940-1434) (domain or fragment)”, which fold reduction of binding relative to wild type [1] is on record?
**A.** > 4 fold

**Q.** What about the fold reduction of binding relative to wild type [2] of the same substance?
**A.** > 4 fold
